OD450, EC50 and IC50 data for two molecules are collected here from patent publication US20240174760A1 (ZHEJIANG NANOMAB TECHNOLOGY CENTER, published 2024).

The target in assay [1] is human BCMA his tag protein (Acrobiosystems, BCA-H522y) (human) (UniProt Q02223). Put plainly: comp. ELISA, competitor biotin-BAFF (ligand signal), Ab 78 ug/mL.
The target is the same in assay [2]. Put plainly: comp. ELISA, competitor biotin-APRIL (ligand signal), Ab 78 ug/mL.
The target is the same in assay [3]. Briefly: comp. ELISA, competitor biotin-BAFF (ligand signal), Ab 19.5 ug/mL.
Assay [4] has the same target. Briefly: comp. ELISA, competitor biotin-APRIL (ligand signal), Ab 19.5 ug/mL.
Assay [5] has the same target. Briefly: comp. ELISA, competitor biotin-BAFF (ligand signal), Ab 1.218 ug/mL.
For assay [6] the target is unchanged. Put plainly: comp. ELISA, competitor biotin-BAFF (ligand signal), Ab 4.875 ug/mL.
Assay [7] shares this target. Put plainly: comp. ELISA, competitor biotin-APRIL (ligand signal), Ab 1.218 ug/mL.
For assay [8] the target is unchanged. Briefly: comp. ELISA, competitor biotin-APRIL (ligand signal), Ab 4.875 ug/mL.
Assay [9] deals with T1, human BCMA his tag protein (Acrobiosystems, BCA-H522y) (human, UniProt Q02223 1-54).
T1 construct: Bought protein; also called BCMA/TNFR-His; human recombinant BCMA his tag; not shown: his tag
T1 sequence (looked up): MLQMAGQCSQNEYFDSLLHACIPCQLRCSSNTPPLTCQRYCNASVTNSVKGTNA
Briefly: comp. ELISA, competitor biotin-BAFF (ligand signal), Ab 78 ug/mL. The method, then:
(§1) Plates (Corning) were coated with 2 μg/mL human BCMA his tag protein (Acrobiosystems, BCA-H522y) overnight at 4° C. After blocking and washing, 50 μL diluted antibodies (78 μg/mL, 19.5 μg/mL, 4.875 μg/mL, 1.218 μg/mL) and 50 μL biotin-labeled 1 μg/mL APRIL (Acrobiosystems, APL-H82F5) or 1.25 μg/mL BAFF (Acrobiosystems, BAF-H82F3) ligand were added to each well, and incubated at 37° C. for 1 hour. After washing 3 times, 100 μL HRP-labeled streptavidin (Biolegend, 405210) diluted 1:2000 was added to each well, and incubated at 37° C. for 30 minutes. After washing, 100 μL TMB substrate (Abeam, ab171524) was added to each well and developed for 5 minutes and the reaction was stopped by 3M HCl. The absorbance value at […] was read using a microplate reader (Tecan, SPARK).

The target of assay [10] is T1, human BCMA his tag protein …. Briefly: comp. ELISA, competitor biotin-APRIL (ligand signal), Ab 78 ug/mL. The method, then: as §1
The target is the same in assay [11]. Put plainly: comp. ELISA, competitor biotin-BAFF (ligand signal), Ab 19.5 ug/mL. Here is the method:
as §1

Assay [12] deals with T2, human BCMA full-length protein on cells (human, UniProt Q02223 1-184).
T2 construct: whole, on cells; also called CHO-K1/BCMA; BCMA on RPMI8226, Jeko-1, Daudi cells
T2 sequence (looked up): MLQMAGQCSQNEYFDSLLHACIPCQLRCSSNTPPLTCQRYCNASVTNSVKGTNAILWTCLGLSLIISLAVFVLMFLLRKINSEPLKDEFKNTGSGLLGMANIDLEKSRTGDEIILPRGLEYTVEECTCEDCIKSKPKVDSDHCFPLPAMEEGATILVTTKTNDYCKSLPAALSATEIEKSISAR
Briefly: flow cytometry on RPMI8226 cells, anti-human IgG PE [A&B) A]. Here is the method:
The EC50 of the antibody was calculated by fitting the curve.

Assay [13] deals with T1, human BCMA his tag protein …. Put plainly: comp. ELISA, competitor biotin-APRIL (ligand signal), Ab 19.5 ug/mL. Here is the method:
as §1

The target is the same in assay [14]. Put plainly: comp. ELISA, competitor biotin-BAFF (ligand signal), Ab 1.218 ug/mL. The method, then: as §1
The target is the same in assay [15]. Briefly: comp. ELISA, competitor biotin-BAFF (ligand signal), Ab 4.875 ug/mL. Here is the method:
as §1

For assay [16] the target is unchanged. Briefly: comp. ELISA, competitor biotin-APRIL (ligand signal), Ab 1.218 ug/mL. The method, then:
as §1

For assay [17] the target is unchanged. Briefly: comp. ELISA, competitor biotin-APRIL (ligand signal), Ab 4.875 ug/mL. Here is the method:
as §1

Assay [18] deals with T2, human BCMA full-length protein on cells. Briefly: flow cytometry competition on CHO-K1/BCMA cells; antibody titrated against biotin-APRIL, PE streptavidin readout. The method, then:
(§2) In a 96-well non-adsorption deep-well plate, the purified antibody and the control antibody were diluted to 1000 nM with DPBS, and then serially diluted to 8 concentration with 3-fold dilution. Biotin-APRIL was diluted to 4 μg/mL with DPBS. 50 μL the antibody diluted in the previous step or DPBS (Blank, Blank-PE tube), respectively, was added to the wells of a non-adsorption 96-well plate having 5×10⁵ CHO-K1/BCMA cells that overexpressed human BCMA, and then the 50 μL diluted APRIL in the previous step was added and mixed, incubated at 4° C. for 40 min. After washing once with pre-cooled DPBS, 150 μL PE Streptavidin (Biolegend, 405210) diluted with DPBS at 1:500 was added to each well, the cells were resuspended, and incubated at 4° C. for 30 min. After 30 minutes, centrifuged at 220 g for 5 minutes at 4° C., the supernatant was discarded, 200 μL pre-cooled DPBS washing solution was added to each well, the cells were resuspended by gently pipetting with a multichannel pipette, centrifuged at 220 g for 5 minutes, the supernatant was discarded, and the washing step was repeated one time. After 2 times of washing, the cells were resuspended in DPBS and detected by a flow analyzer (Beckman, Cytoflex). […]

The target is the same in assay [19]. The assay is described as above. The method, then: as §2
The source holds these as a separate data set.

Read-outs that look alike come from different tables or passages of the source.

Turning to Isotype-2 (antibody), the OD450 in assay [1] came to 3.24 OD450; in assay [2] it was 3.04 OD450; in [3] it was 3.28 OD450; in [4], 2.99 OD450; in assay [5], 3.38 OD450; in assay [6], 3.29 OD450. The OD450 was 2.89 OD450 in assay [7] and 3.07 OD450 in [8].

B1: BMK1 (scFv)
scFv: DIVLTQSPASLAVSLGKRATINCRASESVSVIGAHLIHWYQQKPGQPPKLLIYLASNLETGVPARFSGSGSGTDFTLTISSLQAEDAAIYYCLQSRIFPRTFGGGTKLEIKGSTSGSGKPGSGEGSTKGQVQLVQSGSELKKPGASVKVSCKASGYTFTDYSINWVRQAPGQGLEWMGWINTETREPAYAYDFRGRFVFSLDTSVSTAYLQISSLKAEDTAVYYCARDYSYAMDYWGQGTLVTVSS
notes: also called positive control antibody; BMK control antibody
In the case of B1, the OD450 in assay [9] is 0.03 OD450; in assay [10] it was 0.05 OD450; in assay [11], 0.31 OD450; in assay [13], 0.31 OD450; in assay [14], 3.39 OD450; in assay [15], 3.32 OD450. Further, the OD450 came to 3.1 OD450 in assay [16] and 2.9 OD450 in assay [17]. The molecule further showed an EC50 in assay [12] of 5.7 nM. For the same molecule, the results for the IC50 in assay [18] and in assay [19] were 89.6 nM and 81.8 nM, respectively.
